Measurements published in article PMC2527117 (The Journal of Biological Chemistry, 2008).

Target: the molecule itself
Assay: SEC

B1: PfUIS3 soluble domain (residues 83-229) (domain or fragment, Plasmodium falciparum, UniProt Q8IEU1 83-229, looked up)
chain: YYGYKKSREDDLYYNKYLEYRNGEYNIKYQDGAIASTSEFYIEPEGINKINLNKPIIENKNNVDVSIKRYNNFVDIARLSIQKHFEHLSNDQKDSHVNNMEYMQKFVQGLQENRNISLSKYQENKAVMDLKYHLQKVYANYLSQEEN
  stoichiometry N: 2
